Data set [1] relates to MS2 coat protein. As to the kind of experiment: apparent KD of MS2 coat protein; designed switch direction (-1 OFF switch, 1 ON switch): 1; higher = weaker reporter binding. The conditions noted are these: Eterna round: R98. The method, then:
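RNA-MaP: designed FMN/MS2 RNA switches (84 nt design region) are transcribed on-chip within common flanks and titrated with SNAP-549-labelled MS2 coat protein (about 1-3000 nM) in 100 mM Tris pH 7.5, 80 mM KCl, 4 mM MgCl2, without or with 200 uM FMN. Median apparent KD per design; activation ratio = KD,OFF / KD,ON.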

Data set [2] concerns MS2 coat protein. Description: apparent KD of MS2 coat protein, switch ON state; designed switch direction (-1 OFF switch, 1 ON switch): 1; higher = weaker reporter binding. The conditions noted are these: FMN input: 0 or 200 uM; Eterna round: R93 (includes R88 designs). Summed up: (§1)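 Each design's apparent KD comes from the median of binding-curve fits to its normalised clusters. Those clusters carried RNA switches transcribed on-chip from Illumina sequencing clusters. SNAP-549-labelled MS2 coat protein was titrated onto them in twofold steps (0.7 or 1.5 nM to 3 µM; per step 0.8–1.5 h down to 10–20 min). Conditions were 100 mM Tris-HCl pH 7.5, 80 mM KCl, 4 mM MgCl2, without or with constant ligand.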

Data set [3] has as its system MS2 coat protein. As to the kind of experiment: apparent KD of MS2 coat protein, switch OFF state (with FMN for OFF switches, without FMN for ON switches); designed switch direction (-1 OFF switch, 1 ON switch): 1; higher = weaker reporter binding. The conditions noted are these: FMN input: 0 or 200 uM; Eterna round: R93 (includes R88 designs). Summed up: as §1

For the sequence “UGAUCGCUUGGAGGAUAUCCAACUAUCCUAGUUGGAGAAGGCCAAGCUACAGAGCUAAGCUUGGAAGUCACUUCGGAUCAACAC [pwkr ssNG1 F9.4.1]”, the entries for the “apparent KD of MS2 coat protein” value in data set [1] (input ligand: FMN 200 uM) and in data set [1] (input ligand: none) were 65.5 nM and 32.7 nM, respectively.
In the case of “CCAGAUGUGUGAGGAUAUAGAGUGGAAUACACUCUAGAAGGUAUGUGAAAACAUGAGGAUCACCCAUGUGAUUAAUCAUCUGGA [SameState #2 NG1]”, the “apparent KD of MS2 coat protein” value was 27.9 nM in data set [1] (input ligand: FMN 200 uM) and 24.4 nM in data set [1] (input ligand: none).
Turning to “GUCCCAGUCACAGGAUAUGGCUCCGUAAUGGAGCCAGAAGGGUGAUAUUCAGAAAACACACAUGAGGAUCACCCAUGUAAUAAA [Enindiinso]”, the “apparent KD of MS2 coat protein” value in data set [1] (input ligand: FMN 200 uM) is 188 nM; in data set [1] (input ligand: none), 774 nM.
As for “GCAGAAGGUGCGGAGGAUCACCCUGUAAGGAUAUGCAUUAGCAAGGAUAUACAGAGGAUCACCCUGUAGAAGGUGCACUACUCA [pwkr2 ssNG3 DX.3]”, the “apparent KD of MS2 coat protein” value in data set [1] (input ligand: FMN 200 uM) is 562 nM; in data set [1] (input ligand: none) it was 1970 nM.
As for “GUAGCAUACCGAGGAUAUUCAUCCGGAUUACGGACAUGAGGAUCACCCAUGUGGCGAAAGCCUUGGGAGAAGGCGGAAUGCUAC [Xeinanis 75 33]”, the “apparent KD of MS2 coat protein” value in data set [1] (input ligand: FMN 200 uM) turned out to be 34.4 nM; in data set [1] (input ligand: none), 369 nM.
With “AAAACAUACCGAGGAUAUUCAUUUUAUAAAUAAACAUGAGGAUCACCCAUGUGGCAAAAGCCUAGGGAGAAGGCGGAAUGCUAA [salish99_SSNG2_r2_121]”, the “apparent KD of MS2 coat protein” value in data set [1] (input ligand: FMN 200 uM) worked out at 29.9 nM; in data set [1] (input ligand: none) it was 39.6 nM.
The like results for “GCUUGCGACGCAGGAUAUGGGUGCCUGCACAUGAGCAUCAGCCAUGUUGAGGAACGGAUUACGUCUCAGAAGGGCGUGGCAGGC [United States 3 - Jieux - Same State NG 2]” were, in that order, 16.7 nM and 19.9 nM.
Take “GGCUUAAACACAGGAUAUAGCCUUAGAGUGAGGCUAGAAGGGUGAAGUUCUCAUACAUGAGGAUCACCCAUGUCACGGAGGCUA [Atteedbian]”: the “apparent KD of MS2 coat protein” value in data set [1] (input ligand: FMN 200 uM) turned out to be 307 nM; in data set [1] (input ligand: none) it was 37.1 nM.
For “UAUAUAUGGUGAGGAUAUGCAGAGGAUCACCCUGUAGAAGGCAUCAGGGUAGAAGGUGCAAGGAUCACCUGUAAGGAUAUAUCC [pwkr2 ssNG1 DX.30]”, the “apparent KD of MS2 coat protein” value in data set [1] (input ligand: FMN 200 uM) turned out to be 587 nM; in data set [1] (input ligand: none) it was 1370 nM.
Turning to “CACACAUGGUGAGGAUAUGCAGAGGAUCACCCUGUAGAAGGCAUCAGGGUAGAAGGUGCAAGGAUCACCUGUAAGGAUAUAUCC [pwkr2 ssNG1 DX.27]”, the “apparent KD of MS2 coat protein” value in data set [1] (input ligand: FMN 200 uM) worked out at 1030 nM; in data set [1] (input ligand: none), 1430 nM.
As to “UAUUGCGCCGUAAAAUAACACAUGAGGAUCACCCAUGUGACACAGGAUAUAACCAGAUCAGAAAGUUAGAAGGGUGAAAACGGC [Edraed Mod 3 - Jieux - Same State NG3]”, the “apparent KD of MS2 coat protein” value in data set [1] (input ligand: FMN 200 uM) was 20.4 nM; in data set [1] (input ligand: none), 30.8 nM.
Consider “GUAGCAUACAGAGGAUAUUCAAACCGGAAACGGACAUGAGGAUCACCCAUGUGGCGAAAGCCUAGGGAGAAGGCUGAAUGCUAC [Xeinanis 75 40]”, for which the “apparent KD of MS2 coat protein” value stood at 11.7 nM in data set [1] (input ligand: FMN 200 uM) and 16 nM in data set [1] (input ligand: none).
“AAAACAUGAGGAUCACCCAUGUAAAGAACGGUUAAUUAAAGUGAGGAUAUACAAAAUUUUAUAUAGUAGAAGGCACUGGGUACA [JR_SSNG3_Sub022]”: the “apparent KD of MS2 coat protein” value in data set [1] (input ligand: FMN 200 uM) stood at 24.9 nM; in data set [1] (input ligand: none) it was 21.4 nM.
In the same order, the values of “GACGAAAUCUUAGGAUAUGCUCAGGAAUACUGAGCAGAAGGAAGAUAUACCUGAGGAUCACCCAGGUUAAACUGGACGUCAAUA [Same State NG1 - A3C, U17G Submission 8I U7A]” are 24.9 nM and 29.4 nM.
Regarding “AGCGGUAGGACAGGAUAUGGUGACUUCAAGCGGCCAGAAGGGUCCCGACAUGAGGAUCACCCAUGUCUUCCAGGCAGGGAGCGC [Teanisradi]”, the “apparent KD of MS2 coat protein” value stood at 710 nM in data set [1] (input ligand: FMN 200 uM) and 234 nM in data set [1] (input ligand: none).
Consider “GGAUCCAACACAGGAUAUGCUGGACUUUGUCCAGCAGAAGGGUGAAACAUGAGGAUCACCCAUGUAUGGAUCCAUAUAUUUAAU [Denovo 32]”, for which the “apparent KD of MS2 coat protein” value in data set [1] (input ligand: FMN 200 uM) amounted to 245 nM; in data set [1] (input ligand: none), 629 nM.
Regarding “CCCUCCAGAAGAGGGACAUGAGGAUCACCCAUGUAGGCUGCACAGGAUAUCGAUCGGAGGCGGUACGAGAAGGGUGACGUCAUU [Atleis]”, the “apparent KD of MS2 coat protein” value was found to be 48.7 nM in data set [1] (input ligand: FMN 200 uM) and 26.9 nM in data set [1] (input ligand: none).
For “AAUAUAUUAUUUAAGGAUAUCAUAGGAAAAACAUGAGGAUCACCCAUGUGGGAAACCUGGUCGGGUGAGAAGGUGGAUAAUAUAU [Samwise Clockwise 34 - Jieux - Same State 2]”, the “apparent KD of MS2 coat protein” value in data set [2] came out at 93.7 nM; in data set [3], 317 nM.
As for “AAACCACAUGAGGAUCACCCAUGUAAAAAUAUGGGAGGAUAUGCGAAAAGAAACAAAGAAGCAGAAGGCCUAAAAA [75%, Ex sub1, 19]”, the “apparent KD of MS2 coat protein” value was found to be 26.3 nM in data set [2] and 114 nM in data set [3].
For “AAAAGACAUGAGGAUCACCCAUGUGAAAACGUGCGAGGAUAUGUAUGGAAACUAUACUGUACAGAAGGCGCAUGUC [SS1 - 81]”, the “apparent KD of MS2 coat protein” value is 19.9 nM in data set [2] and 24.3 nM in data set [3].
For the sequence “AAAUAAAUGACUGAGGAUAUAUCGAUGAGUACAUGAGGAUCACCCAUGUGAUAAUAAAAAGGGUGGUAGAAGGUAGUCAACAAAC [Mod 14 of Pariah 4 by Hyphema in Round 1]”, the “apparent KD of MS2 coat protein” value in data set [2] was found to be 185 nM; in data set [3], 150 nM.
In the same order, the values of “AGCACGUGAUUGGAGGAUAUGUAGUAAGCAACAUGAGGAUCACCCAUGUCUGAGGCUGAAAAGCAGCAGAAGGCCGAUACAACCA [SS2-1.5]” are 18.2 nM and 19.2 nM.
In the same order, the values of “AAAAGACAUGAGGAUCACCCAUGUAAAGACAUGAGAGGAUAUGCAUGGAAAACAUGCUGUGCAGAAGGCUCAUGUC [SS1 - 17]” are 18.1 nM and 22.6 nM.
On to “AUAAUACAUGAGGAUCACCCAUGUCAAGGCUAUCAAGGAUAUAGACAACGUAGCGGUUGACUAGAAGGUGAGAAAU [Onxeanis]”, for which the “apparent KD of MS2 coat protein” value was 124 nM in data set [2] and 78.8 nM in data set [3].
For the sequence “GAAAAACAUGAGGAUCACCCAUGUGAUAAUAUGGGAGGAUAUACGAAGACGAAAGUCAAAGUAGAAGGCCUAAAAG [Garnet 36]”, the “apparent KD of MS2 coat protein” value in data set [2] was 57.5 nM; in data set [3], 81.7 nM.
For “AAGAAACAUGAGGAUCACCCAUGUGAUAAUAUGGGAGGAUAUACGAAGACGAAAGACGAAGUAGAAGGCCUAUGAA [Garnet 45]”, the figures for the “apparent KD of MS2 coat protein” value in data set [2] and in data set [3] were 46.9 nM and 83.3 nM, respectively.
“AUAAAACAUGAGGAUCACCCAUGUCCGACAAAUCAAGGAUAUGAGAGCCAAACCAGGCUGUUAGAAGGUGAAAGAA [Edorlebere]”: the “apparent KD of MS2 coat protein” value in data set [2] came out at 154 nM; in data set [3], 182 nM.
The like results for “UGGAGACAUGAGGAUCACCCAUGUGAGAAGAGGCGAGGAUAUCGAAAGAAAGAAGAGAAACGAGAAGGCGCGAGGA [salish99-SS1-039]” were, in that order, 47.6 nM and 49.8 nM.
“AUAAUAAUAAGGUAGGAUAUACUAAAGUAAACAUGAGGAUCACCCAUGUAAAGAAAAAAACUCAUGUAGAAGGGCCAGAAAUAAA [moonwalk 3]”: the “apparent KD of MS2 coat protein” value in data set [2] was determined as 53.2 nM; in data set [3] it was 62.3 nM.
